Data from the nanobody polyreactivity screen of Harvey et al. (2022).

assay: yeast display, Sf9 membrane polyspecificity reagent, FACS + sequencing; frameworks hold sequencing errors
Method in brief: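 Synthetic nanobody libraries on Saccharomyces cerevisiae BJ5465 were galactose-induced for 36–48 hours, stained 1 hour at 4 °C with 10% biotinylated, detergent-solubilized Sf9 membrane reagent and enriched on streptavidin microbeads. FACS then separated cells into low and high (top ~1%) gates by anti-HA (expression) and streptavidin (reagent binding) fluorescence. Genes were colony-PCR amplified, MiSeq 2 × 250 sequenced and CDR-length filtered. A clone's polyreactivity label is that of its gate of origin.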

Row | Sequence | polyreactivity (PSR sort gate)
1 | QVQLVESGGGLVQAGGSLRLSCAASGRIFYYYTMGWYRPAPGKERELVARITGLTGRTYYADCVKGRFTISRDNGKNTVYLQMNSLKPEDTAVYYCNARYFRHYDYWGQGTQGTVSS | high polyreactivity
2 | QVQLVESGGGLVQAGGSLRLSCAASGFISGKYAMGWYRQAPGKERELVASIRSGGSTNYADSVKGRFTISRDNAKNTVYLQMNSLKPEDTAVYYCAKLRGSRGVIYDYWGQGTQVTVSS | high polyreactivity
3 | QVQLVESAGGLVQAGGSLRLSCAASGIIFIYYTMGWYRQAPGKERELVAVITTSGDGTYYADSVKGRFTISRDNAKNTVYFQMNSLKPEDTAVYYCAASYSTWVSSRNDYWGQGTQVTVSS | low polyreactivity
4 | QVQLVESGGGLVQAGGSLRLSCAASGSIFRGYAMGCYRQAPGKERELVAAITSGGSTNYADSVKGRFTISRDNAKNTVYLQMNSLKPEDTAVYYCAKDLALVAPLSDYWGQGTQVTVSS | low polyreactivity
5 | QVQLVESGGGLVQAGGSLRLSCAASGRTIPIYAMGWYRQAPGKERELVAAITRGGRTNYADSVKGRFTISRDNAKNTVYLQMNSLKPEDTAVYYCAARTYGTYLYAEYDYWGQGTQVTVSS | high polyreactivity
6 | QVQLVESGGGLVQAGGSLRLSCAASGSTFVHYAMGWYRQAPGKEREFVASITRSGTSTYYADSVKGRFTISRDNAKNNVYLQMNSLKPEDTAVYYCNAELLGARQYWYYRYYYWGQGTQVTVSS | high polyreactivity
7 | QVQLVESGGGLVQAGGSLRLSCAASGRILWSYAMGWYRQAPGKEREFVAAISRGGGTTYYADSVKGRFTISRDNAKNTVYLQMNSLKPEDTAVYYCNAGDHIRKRYGISATWGYGYGYWGQGTQVTVSS | high polyreactivity
8 | QVHLVESGGGLVQAGGSLRLSCAASGRTFIFYAMRWYRQAPGKERELVATISRSAGSTYYADSVKGRFTISRDNAKNTVYLQMNSLKPEDTAVYYCATQSRHYRGGKYYYWGQGTQVSVSS | high polyreactivity
9 | QLQLVESGGGLVQAGGSLRLSCAASGFTFSYYAKGWYRQAPGKERELVAAISINGGRTYYADSVKGRFTISRDNAKNTVYLQMNSLKPEDTAVYYCNAVSYAYTVRMDYWGQGTQVTVSS | high polyreactivity
10 | QVQLVESGGGLVQAGGSLRLSCAASGITLTYYAMGWYRQAPGKERELVAAITWNGGHTYYADSVKGRFTISRDNAKNTVYLQMISQKPEDTAVYYCAAELWAYTWYWHSDYWGQGTQVTVSS | low polyreactivity
11 | QVQLVESGGGLVQAGGSLRLSCAAAGSIFYYKTMGWYRQAPGKEREMVAAISWSGGSTSYADSVKGRFTISRDNAKNTVYLQMNSLKPEDTAVYYCNVDYGVHVTARDYWGQGTQVTVSS | low polyreactivity
12 | QVQLVESGGGLVQAGGSLRLSCAASGSIFSYNAMGWYRQATGKERELVARITRGGDGTYYADSVKGRFTISRDNAKNTVYLQMNSLKPEDTAVYYCAATPYWYHLRVEGGYWGQGTQVTVSS | low polyreactivity
13 | QVQLVESGGGLVQAGGSLRLSCAASGGTFYYYAMGWYRQAPGKERELVATITWSGDSTNYADSVKGRFTISRDNAKNTVYLQMNSLKPEDTAVYYCAKDLTQSYEYDYWGQGTQVTVSS | low polyreactivity
14 | QVQLVESGGGLVQAGGSLRLSCAASGSIFGGYAMGWYRQAPGKERELVARIRGSTGSTYYADSVKGRFTISRDNAKNTVYFQMNSLKPEDTAVYYCNARYKYYRGSGMDSWGQGTQVTVSS | high polyreactivity
15 | QVQLVESGGGLVQAGGSLRLSCAASGIIFPTYDMGWYRQAPGKERELVAAITWSTGSTTYADSVKGRFTISRDNAKNTVYLQMNSQKPEDTAVYYCNKDSEGSGGEFDYWGQGTQVTVSS | low polyreactivity
16 | QVQLVESGGGLVQAGGSLRLSCAASGRTSYYAMGWYRQAPGKETELVAAINSGDSPTDADSVKGRFTISRDNAKNTVYLQMNTQTPEDTAVYYCATALYDWYSLEFDYWGQGTQVTVSS | low polyreactivity
17 | QVQLVESGGGLVQAGGSLRLSCAASGITFDSYAMGWYRQAPGKEREFVAAISRSGGSTYYADSVKGRFTISRDNAKNTVYLQMNSLKPEDTAVYYCAVSLGRGSSWKLGYWGQGTQVTVSS | high polyreactivity
18 | QVQLVESGGGLVQAGGSLRLSCAASGSIRSYAMGWYRQAPGKERELVAAITRSGGSTYYADSVKGRFTISRDNAKNTVYLQMNSLKPEDTAVYYCAAEVRGKSRSTRVSYRYDYWGQGTQVTVSS | high polyreactivity
19 | QVQLVESGGGLVQAGGSLRLSCAASGSIFQFYAMGWYRQAPGKERELVAAITGDGSTDYADSVKGRFTISRDNAKNTVYLQMNSLKPEDTAVYYCAADLWRYLGWYYIYHYDYWGQGTQVTVSS | low polyreactivity
20 | QVQLVESGGGLVQAGGSLRLSCAASGSTFSTNAMGWYRQAPGKERELVAAIRWRGGRTYYADSVKGRFTISRDNAKNTVYLQMNSLKPEDTAVYYCAADYSFTGHRYTYGYWGQGTQVTVSS | high polyreactivity
21 | QVQLVETGGGLVQAGGSLRLSCAPSGSIFRYNAMGWYRQAPGKEREFVAAISQSGSRTYYADSVKGRFTISRDNAKNTVYLQMNSLKPEDTAVYYCAKKYYGVKFYWGQGTQVTVSS | low polyreactivity
22 | QVQLVESGGGLVQAGGSLRLSCAASGRTFTFYTMGCYRQSPGKERELVAAITRSGGGTYYADSVKGRFTISRDNAKNTVYLQMNSLKPEDTAVYYCAAYNRNAFHWGQGTQVTVSS | high polyreactivity

Row | Sequence | polyreactivity (PSR sort gate)
23 | QVQLVESGGGLLQAGGSRRIRCAASGRIFWVYAMGWYRKAPGKERELVAAISSTGDGTYYADSVKVRFTISRDNAKNSVYLEMNSLKPDDTAVYYCAADFRVARSPLSGGSDFWGQGTQVTVSS | low polyreactivity
24 | QVQRVESGGGLVQAGGSLRLSWAASGSTFSRYAMGWYRQAPGTERELVAAISASGGGTYYADSVKGRFTISRDNAKNTVYLQMNSLQPEDTAVFYCAAVRIARAVQDYDYWGQGTQVTVSS | high polyreactivity
25 | QVQLVESGGGLVQAGGSLRLSCAASGRIVKYAMGWYRQAPGKERELVAAITSGGSTTYADSVKGRFTISRDNAKNTVYLQMNSLKPEDTAVYYCKALRRARYTRKGYEYWGQGTQVTVSS | high polyreactivity
26 | QVQLVESGGGLVQAGGSLRLSCAASGSTFYNNAMGWYRQAPGKERELVAAISNVSTYYADSVKGRFTISRDNAKNTVYLQMNSLKPEDTAVYYCAARGLLWYYSWRYYYWGQGTQVTVSS | low polyreactivity
27 | QVQLVESGGGLDQAGGSLRLSCAASGFTFGSNAMGWYRQAPGKERELVASITTRGGSTYYADSVKGRFTISRDNANNTVYLQMNSLKPEDTAVYYCAARARYPNWTYYYWGQGTQVTVSS | high polyreactivity
28 | QVQLVESGGGLVQAGGSLRLSCGASGSTFIYYVMGWYRQAPGKEREWVASISTGGRTYYADSVKGRFTSSRDNANHPVYVQMHSLKPEETAVDSCAGAIRSFRRPALYYWGQGTQVTVSS | high polyreactivity
29 | QVQLVESGGGLVQAGGRLRLSCAASGFIFWTYAMGWYRQAPGKERELVARISWSGGSTYYADSVKGRFTISRDTAKNTVYLQMNSLKPEDTAVYYCARLATLYESIEYDYWGQGTQVTVSS | low polyreactivity
30 | QVQLVESGGGLVQAGGSLRLSCAASGSTSPLYAMGWYRQAPGKERELVAAISWSTGSTYYADSVKGRFTISRDNAKNTVYLQMNSLKPEDTAVYYCAADYWFRYGTYEYWGQGTQVTVSS | high polyreactivity
31 | QVQLVESGGGLVQAGGSLRLSCAASGSTFYRNAMGWYRQAPGKERELVATINRGGSTYYADSVKGRFTISRDNAKNTVYLQRNSLNPEDTAVYYCAKDSYYAGRFIYTPRAKYGYWGQGTQVTVSS | high polyreactivity
32 | QVQLVESGGGLVQAGGSLRLSCAASGSTFRGYAMGWYRQAPGKEREFVAAISRRGGTTYYADSVKGRFTISRDNAKNTVDLQMNSRNPEDTAVYYCNAVLYARQRDRWARYDYWGQGTQVTVSS | high polyreactivity
33 | QVQLVESGGGLVQAGGSLRLSCAASGFIFRSYDMGWYRQAPGKERELVARISSGGSTYYADSVKGRFTISRDNAKNTVYLQMNSLKPEDTAVYYCNSARPTAAYDYWGQGTQVTVSS | low polyreactivity
34 | QVQLVESGGGLVKAGGSLRLSCAASGYTFLFNVMGWYRQAPGKEREIFATIRYSGGSTYYADSVKGRFTISRDNAKNTVYLQMNSLKPEDTAVYYCAARYAWYTSYCSRKYDYWGQGTQVTVSS | high polyreactivity
35 | QVQLVESGGGLVQAGGSLRLSCAASGRTFRPYAMGWYRPAPGKERELVAAISSRGSSTYYADSVKGRFTISRDNAKNTVYLQMNSLKPEDTAVYYCAARSYWGGLRYDYWGQGTQVTVSS | high polyreactivity
36 | QVQLVESGGGLVQAGGSLRLSCAASGFIFGYYAMGWYRQAPGKEREFVAAITKRGGRTYYADSVKGRFTISRDNAKNTVYLQMNSLKPEDTAVYYCNKAIRQDRWVQEEDYWGQGTQVTVSS | high polyreactivity
37 | QVQLVESGGGLVQAGGSLRLSCAASGSTFDGNAMGWYRQAPGKERELVAAITYTTSSTYYADSVKGRFTISRDNAKNTVYLQMTSLKPEDTAVYYWGQGTQVTVSS | low polyreactivity
38 | QVQLVESGGGLVQAGGSLRLSCAASGRTFGAYTMGWYRQAPGKERELVAAINWSGGDTYYADSVKGRFTISRDNAKNTVYLQMNSLKPEDTAVYYCNAEPRYGTYDYWGQGTQVTVSS | low polyreactivity
39 | QVQLVESGGGLVQAGGSLRLSCAASGRIFYTYAMGWYRQAPGKERELVAAISRSGVSTYYADSVKGRFTISRDTAKNTVYLQMNSLKPEDTAVYYCAARWRSGFTSGDYWGQGTQVTVSS | low polyreactivity
40 | QVQLVESGGGLVHAGGSLRLSCAPSGSTFDDYTMGWYRPAPGKERELVAAISSAGSTNYADSVKGRFTISRDNAKNTVYLQMNSLKPEDTAVYYCAAQVHPIRYDYWGQGTQVTVSS | low polyreactivity
41 | QVQLVESGVGLVQAGGSLRLSCAASGRIFGVYVMGWYRQAPGKERELVAGISPSGGSTYYADSVKGRFTISRDNAKNTVYLQMNSLKPEDTAVYYCAAVLRIRRPRYGYWGQGTQVTVSS | high polyreactivity
42 | QVQLVESGGGLVQAGGSLRLSCAASGIIFYHYAMGWYRQAPGKEREFVAAITWDGGNTYYADSVKGRFTISRDNAKNTVYLQMNSLKPEDTAVYYCNTDRGPVKVSPLYESWGQGTQVTVSS | low polyreactivity
43 | QVHLVESGGGLVQAGGSLRLSCAASGSTFRYYAMGWYRQAPGKERELVAAIRDSGGSTYYADSVKGRFTISRDNAKNTVYLQMNSLKPEDTAVYYCARRAYRWYSAYDSWGQGTQVTVSS | high polyreactivity
